The text below walks through data of US20140223606, “COMPOSITIONS AND METHODS COMPRISING SEQUENCES HAVING MEGANUCLEASE ACTIVITY” (PIONEER HI BRED INTERNATIONAL INC, published 2014).

Holding throughout (test): cell_activity; yeast 30 C; 22 C: 0
Holding throughout (conditions): tags: NLS, 6xHis

The target of one series is T1, LIG3-4(B55) (artificial).
T1 chain: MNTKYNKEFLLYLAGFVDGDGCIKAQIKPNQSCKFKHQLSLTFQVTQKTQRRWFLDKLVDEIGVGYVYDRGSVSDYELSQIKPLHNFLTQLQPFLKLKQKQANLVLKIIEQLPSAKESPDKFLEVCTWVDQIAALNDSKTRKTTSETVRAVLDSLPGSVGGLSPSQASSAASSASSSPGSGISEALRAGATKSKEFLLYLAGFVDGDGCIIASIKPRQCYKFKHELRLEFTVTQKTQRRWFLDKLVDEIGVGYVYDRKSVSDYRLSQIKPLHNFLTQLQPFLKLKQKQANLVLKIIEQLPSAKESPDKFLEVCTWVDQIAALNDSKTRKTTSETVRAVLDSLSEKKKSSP
The procedure:
(§1) A 3 mL culture of selective media (MP Biomedical) was inoculated with a single colony of the yeast screening strain and grown at 30° C. overnight. On the following day, a 50 ml YPD culture (MP Biomedical) was started with 2 ml of the overnight culture and grown at 30° C. overnight. On the following day, the cells were harvested by centrifugation at 4000 rpm. The cells were resuspended in 100 ml ice cold water and centrifuged again. The cells were then washed in 1.2 M sorbitol, followed by treatment with 2 ml of 10 mM Tris pH 8.0, 1 mM EDTA, 100 mM Lithium acetate, 10 mM DTT, 0.6M sorbitol for 30 minutes at 30° C. with shaking. The cells were recovered by centrifugation, washed in 40 ml 1.2M sorbitol and finally resuspended in 250 microliters of 1.2M sorbitol. 50 microliter aliquots were transferred to test tubes on ice. Up to 5 microliters of DNA (100-500 nanograms) were added. The suspension was transferred to a 0.2 cm electroporation cuvette, on ice. Electroporation was performed with a pulse charge at 1.5 kV, 200 ohms, 25 microF (pulse time of 5 milliseconds). 1 mL YPD media (MP Biomedical) was added and the cells were allowed to recover at 30° C. for 1-2 hr. The cells were centrifuged, resuspended in 100 uL 1M sorbitol and plated on selective media lacking leucine and containing 2% galactose. The resulting yeast colonies were incubated at various temperatures ranging from 22 to 37 degrees Celsius for 7-10 days. I-CreI and meganucleases derived from it have maximal activity at or above 37 degrees Celsius. Screening was performed at a range of temperatures from 22 to 37 degrees in order to observe increases in activity at lower temperatures which are relevant to certain biological systems (eg. plant cells, plant cell cultures, etc). At that time the red/white sectoring phenotype, indicative of meganuclease activity was observed. Colonies with increased white sectoring over the parental meganuclease (indicating colonies expressing a meganuclease with increased meganuclease activity), also referred to as “hits” and sometimes completely white, were isolated for further analysis.

Another series deals with T2, LIG3-4(B40) (artificial).
T2 chain: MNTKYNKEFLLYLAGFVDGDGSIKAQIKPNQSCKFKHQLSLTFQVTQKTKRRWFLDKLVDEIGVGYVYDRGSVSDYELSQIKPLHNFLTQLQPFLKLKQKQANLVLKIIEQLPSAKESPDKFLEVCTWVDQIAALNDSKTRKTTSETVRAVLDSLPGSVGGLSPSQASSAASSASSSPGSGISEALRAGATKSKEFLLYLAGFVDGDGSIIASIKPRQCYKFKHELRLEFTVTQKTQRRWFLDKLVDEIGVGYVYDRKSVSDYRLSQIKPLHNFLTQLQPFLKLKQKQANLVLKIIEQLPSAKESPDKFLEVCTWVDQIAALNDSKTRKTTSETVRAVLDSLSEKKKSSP
The procedure: as §1

Another series has as its target T3, LIG3-4(A6) (artificial).
T3 chain: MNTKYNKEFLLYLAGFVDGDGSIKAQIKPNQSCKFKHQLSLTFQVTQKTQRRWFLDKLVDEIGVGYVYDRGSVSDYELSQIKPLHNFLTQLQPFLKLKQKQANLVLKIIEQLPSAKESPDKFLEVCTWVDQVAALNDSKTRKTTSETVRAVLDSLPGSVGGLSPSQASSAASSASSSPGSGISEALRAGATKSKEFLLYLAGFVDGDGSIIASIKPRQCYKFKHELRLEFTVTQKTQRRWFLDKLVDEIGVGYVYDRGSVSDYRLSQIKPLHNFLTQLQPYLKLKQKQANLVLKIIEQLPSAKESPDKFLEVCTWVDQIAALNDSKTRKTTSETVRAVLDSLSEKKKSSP
The procedure: as §1

A further series concerns the target T4, LIG3-4(B24) (artificial).
T4 chain: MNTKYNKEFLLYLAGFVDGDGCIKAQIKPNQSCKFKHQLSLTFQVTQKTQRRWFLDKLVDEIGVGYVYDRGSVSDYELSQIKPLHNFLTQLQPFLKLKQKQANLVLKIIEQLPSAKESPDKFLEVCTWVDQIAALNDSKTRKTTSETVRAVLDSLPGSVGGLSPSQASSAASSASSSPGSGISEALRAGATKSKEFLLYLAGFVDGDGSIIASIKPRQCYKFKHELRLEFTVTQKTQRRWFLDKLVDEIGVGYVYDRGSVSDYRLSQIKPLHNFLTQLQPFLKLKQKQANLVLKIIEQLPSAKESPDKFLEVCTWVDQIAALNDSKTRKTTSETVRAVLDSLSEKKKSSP
The procedure: as §1

For the next series, the target named is T5, LIG3-4(B36) (artificial).
T5 chain: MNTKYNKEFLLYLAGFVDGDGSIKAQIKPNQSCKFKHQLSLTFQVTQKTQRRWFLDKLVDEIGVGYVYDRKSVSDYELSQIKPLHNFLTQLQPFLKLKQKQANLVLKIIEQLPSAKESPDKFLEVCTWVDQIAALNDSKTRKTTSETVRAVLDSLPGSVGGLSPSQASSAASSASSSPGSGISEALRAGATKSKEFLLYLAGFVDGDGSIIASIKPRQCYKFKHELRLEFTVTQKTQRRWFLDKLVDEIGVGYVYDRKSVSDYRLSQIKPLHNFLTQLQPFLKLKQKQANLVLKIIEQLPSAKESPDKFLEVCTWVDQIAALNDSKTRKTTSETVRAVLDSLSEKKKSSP
The procedure:
as §1

B1: LIG3-4 recognition site (dsDNA)
DNA 1: ATATACCTCACACGTACGCGTA
DNA 2: TACGCGTACGTGTGAGGTATAT
As for B1, the activity is 4 score 0-4 with LIG3-4(B55); 4 score 0-4 in the series with LIG3-4(B40); 3 score 0-4 with LIG3-4(A6); 4 score 0-4 with LIG3-4(B24); 4 score 0-4 in the series with LIG3-4(B36).
